The supplement of paper PMC6755084

B1: F1*; the commonest letter at each place (parent)
chain: GAGACCGCAACTGAAAAGTTGTTATCACTTGTCGTAAGACACTTTGGATGGGTTGAAGTTCTGCACGTAGAAGCAAAAGGC

Variants of: B1
Assay: fraction ligated after 30 min (ligated reads / total reads); higher = more ligase activity
Conditions: with F1*sub RNA substrate (template-directed ligation), 42 °C
Summary of the method: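 Templates from an oligo pool were PCR-amplified, transcribed with T7 and gel-purified to give the ribozyme variants. Ligated and unligated products were separated on gel, reverse transcribed using barcoded primers, and read on a MiSeq. A quality filter of ≥20 was applied to core bases. Fraction ligated was taken as ligated reads as a share of all reads per variant.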

Q: How did the fraction ligated turn out when G31C C40G was run?
A: 0.796

Q: Which fraction ligated does the source give for G31C C40T here?
A: 0.791

Q: Which fraction ligated does the source give for G31C C42A here?
A: 0.82

Q: Which fraction ligated does the source give for G31C C42G here?
A: 0.79

Q: How did the fraction ligated turn out when G31C C42T was run?
A: 0.786

Q: G31C G34A was tested. Which fraction ligated did it give?
A: 0.78

Q: With G31C G34C as the variant, how does the fraction ligated read?
A: 0.804

Q: How did the fraction ligated turn out when G31C G34T was run?
A: 0.778

Q: How did the fraction ligated turn out when G31C G38A was run?
A: 0.811

Q: With G31C G38C as the variant, how does the fraction ligated read?
A: 0.778

Q: How did the fraction ligated turn out when G31C G38T was run?
A: 0.819

Q: G31C G46A was tested. Which fraction ligated did it give?
A: 0.797

Q: G31C G46C was tested. Which fraction ligated did it give?
A: 0.732

Q: How did the fraction ligated turn out when G31C G46T was run?
A: 0.784

Q: With G31C G47A as the variant, how does the fraction ligated read?
A: 0.489

Q: Which fraction ligated does the source give for G31C G47C here?
A: 0.0426

Q: Which fraction ligated does the source give for G31C G47T here?
A: 0.0589

Q: G31C G50A was tested. Which fraction ligated did it give?
A: 0.057

Q: G31C G50C was tested. Which fraction ligated did it give?
A: 0.0327

Q: With G31C G50T as the variant, how does the fraction ligated read?
A: 0.108

Q: G31C G55A was tested. Which fraction ligated did it give?
A: 0.809

Q: For G31C G55C, which fraction ligated is on record?
A: 0.14

Q: For G31C G55T, which fraction ligated is on record?
A: 0.794

Q: G31C T32A was tested. Which fraction ligated did it give?
A: 0.803

Q: How did the fraction ligated turn out when G31C T32C was run?
A: 0.796

Q: How did the fraction ligated turn out when G31C T32G was run?
A: 0.78

Q: For G31C T35A, which fraction ligated is on record?
A: 0.796

Q: With G31C T35C as the variant, how does the fraction ligated read?
A: 0.769

Q: G31C T35G was tested. Which fraction ligated did it give?
A: 0.8

Q: With G31C T43A as the variant, how does the fraction ligated read?
A: 0.807

Q: How did the fraction ligated turn out when G31C T43C was run?
A: 0.811

Q: For G31C T43G, which fraction ligated is on record?
A: 0.761

Q: For G31C T44A, which fraction ligated is on record?
A: 0.775

Q: For G31C T44C, which fraction ligated is on record?
A: 0.792

Q: With G31C T44G as the variant, how does the fraction ligated read?
A: 0.781

Q: For G31C T45A, which fraction ligated is on record?
A: 0.492

Q: For G31C T45C, which fraction ligated is on record?
A: 0.0406

Q: For G31C T45G, which fraction ligated is on record?
A: 0.0355

Q: Which fraction ligated does the source give for G31C T49A here?
A: 0.0574

Q: G31C T49C was tested. Which fraction ligated did it give?
A: 0.0658

Q: For G31C T49G, which fraction ligated is on record?
A: 0.0675

Q: With G31T as the variant, how does the fraction ligated read?
A: 0.793

Q: With G31T A36C as the variant, how does the fraction ligated read?
A: 0.769

Q: G31T A36G was tested. Which fraction ligated did it give?
A: 0.798

Q: With G31T A36T as the variant, how does the fraction ligated read?
A: 0.785

Q: For G31T A37C, which fraction ligated is on record?
A: 0.78

Q: For G31T A37G, which fraction ligated is on record?
A: 0.792

Q: G31T A37T was tested. Which fraction ligated did it give?
A: 0.815

Q: For G31T A39C, which fraction ligated is on record?
A: 0.769

Q: How did the fraction ligated turn out when G31T A39G was run?
A: 0.754

Q: G31T A39T was tested. Which fraction ligated did it give?
A: 0.792

Q: With G31T A41C as the variant, how does the fraction ligated read?
A: 0.586

Q: How did the fraction ligated turn out when G31T A41G was run?
A: 0.761

Q: With G31T A41T as the variant, how does the fraction ligated read?
A: 0.772

Q: G31T A48C was tested. Which fraction ligated did it give?
A: 0.292

Q: G31T A48G was tested. Which fraction ligated did it give?
A: 0.49

Q: G31T A48T was tested. Which fraction ligated did it give?
A: 0.0299

Q: Which fraction ligated does the source give for G31T A56C here?
A: 0.221

Q: For G31T A56G, which fraction ligated is on record?
A: 0.679

Q: G31T A56T was tested. Which fraction ligated did it give?
A: 0.755

Q: G31T A57C was tested. Which fraction ligated did it give?
A: 0.789

Q: G31T A57G was tested. Which fraction ligated did it give?
A: 0.819

Q: Which fraction ligated does the source give for G31T A57T here?
A: 0.78

Q: Which fraction ligated does the source give for G31T C33A here?
A: 0.831

Q: For G31T C33G, which fraction ligated is on record?
A: 0.808

Q: Which fraction ligated does the source give for G31T C33T here?
A: 0.777

Q: How did the fraction ligated turn out when G31T C40A was run?
A: 0.827

Q: How did the fraction ligated turn out when G31T C40G was run?
A: 0.83

Q: Which fraction ligated does the source give for G31T C40T here?
A: 0.829

Q: How did the fraction ligated turn out when G31T C42A was run?
A: 0.809

Q: How did the fraction ligated turn out when G31T C42G was run?
A: 0.809

Q: For G31T C42T, which fraction ligated is on record?
A: 0.822

Q: How did the fraction ligated turn out when G31T G34A was run?
A: 0.775

Q: G31T G34C was tested. Which fraction ligated did it give?
A: 0.771

Q: G31T G34T was tested. Which fraction ligated did it give?
A: 0.793

Q: How did the fraction ligated turn out when G31T G38A was run?
A: 0.802

Q: For G31T G38C, which fraction ligated is on record?
A: 0.78

Q: With G31T G38T as the variant, how does the fraction ligated read?
A: 0.801

Q: With G31T G46A as the variant, how does the fraction ligated read?
A: 0.79

Q: G31T G46C was tested. Which fraction ligated did it give?
A: 0.681

Q: G31T G46T was tested. Which fraction ligated did it give?
A: 0.769

Q: With G31T G47A as the variant, how does the fraction ligated read?
A: 0.246

Q: Which fraction ligated does the source give for G31T G47C here?
A: 0.0376

Q: How did the fraction ligated turn out when G31T G47T was run?
A: 0.022

Q: With G31T G50A as the variant, how does the fraction ligated read?
A: 0.0382

Q: With G31T G50C as the variant, how does the fraction ligated read?
A: 0.0159

Q: G31T G50T was tested. Which fraction ligated did it give?
A: 0.103

Q: With G31T G55A as the variant, how does the fraction ligated read?
A: 0.813

Q: For G31T G55C, which fraction ligated is on record?
A: 0.176

Q: Which fraction ligated does the source give for G31T G55T here?
A: 0.759

Q: Which fraction ligated does the source give for G31T T32A here?
A: 0.835

Q: How did the fraction ligated turn out when G31T T32C was run?
A: 0.816

Q: With G31T T32G as the variant, how does the fraction ligated read?
A: 0.826

Q: G31T T35A was tested. Which fraction ligated did it give?
A: 0.797

Q: G31T T35C was tested. Which fraction ligated did it give?
A: 0.782

Q: For G31T T35G, which fraction ligated is on record?
A: 0.803

Q: G31T T43A was tested. Which fraction ligated did it give?
A: 0.778

Q: Which fraction ligated does the source give for G31T T43C here?
A: 0.78

Q: Which fraction ligated does the source give for G31T T43G here?
A: 0.76

Q: G31T T44A was tested. Which fraction ligated did it give?
A: 0.768

Q: Which fraction ligated does the source give for G31T T44C here?
A: 0.782

Q: How did the fraction ligated turn out when G31T T44G was run?
A: 0.764

Q: How did the fraction ligated turn out when G31T T45A was run?
A: 0.387

Q: Which fraction ligated does the source give for G31T T45C here?
A: 0.116

Q: G31T T45G was tested. Which fraction ligated did it give?
A: 0.0586

Q: With G31T T49A as the variant, how does the fraction ligated read?
A: 0.146

Q: Which fraction ligated does the source give for G31T T49C here?
A: 0.0332

Q: G31T T49G was tested. Which fraction ligated did it give?
A: 0.19

Q: With T32A as the variant, how does the fraction ligated read?
A: 0.842

Q: For T32A A36C, which fraction ligated is on record?
A: 0.815

Q: With T32A A36G as the variant, how does the fraction ligated read?
A: 0.794

Q: With T32A A36T as the variant, how does the fraction ligated read?
A: 0.852

Q: T32A A37C was tested. Which fraction ligated did it give?
A: 0.849

Q: T32A A37G was tested. Which fraction ligated did it give?
A: 0.838

Q: With T32A A37T as the variant, how does the fraction ligated read?
A: 0.82

Q: Which fraction ligated does the source give for T32A A39C here?
A: 0.837

Q: How did the fraction ligated turn out when T32A A39G was run?
A: 0.832

Q: Which fraction ligated does the source give for T32A A39T here?
A: 0.827

Q: With T32A A41C as the variant, how does the fraction ligated read?
A: 0.8

Q: T32A A41G was tested. Which fraction ligated did it give?
A: 0.808

Q: For T32A A41T, which fraction ligated is on record?
A: 0.825

Q: How did the fraction ligated turn out when T32A A48C was run?
A: 0.727

Q: With T32A A48G as the variant, how does the fraction ligated read?
A: 0.749

Q: T32A A48T was tested. Which fraction ligated did it give?
A: 0.0494

Q: For T32A A56C, which fraction ligated is on record?
A: 0.574

Q: T32A A56G was tested. Which fraction ligated did it give?
A: 0.808

Q: For T32A A56T, which fraction ligated is on record?
A: 0.82

Q: With T32A A57C as the variant, how does the fraction ligated read?
A: 0.821

Q: With T32A A57G as the variant, how does the fraction ligated read?
A: 0.859

Q: Which fraction ligated does the source give for T32A A57T here?
A: 0.821

Q: Which fraction ligated does the source give for T32A C33A here?
A: 0.811

Q: How did the fraction ligated turn out when T32A C33G was run?
A: 0.823

Q: How did the fraction ligated turn out when T32A C33T was run?
A: 0.847

Q: T32A C40A was tested. Which fraction ligated did it give?
A: 0.834

Q: With T32A C40G as the variant, how does the fraction ligated read?
A: 0.834

Q: How did the fraction ligated turn out when T32A C40T was run?
A: 0.806

Q: How did the fraction ligated turn out when T32A C42A was run?
A: 0.843

Q: T32A C42G was tested. Which fraction ligated did it give?
A: 0.861

Q: With T32A C42T as the variant, how does the fraction ligated read?
A: 0.845

Q: With T32A G34A as the variant, how does the fraction ligated read?
A: 0.809

Q: For T32A G34C, which fraction ligated is on record?
A: 0.809

Q: With T32A G34T as the variant, how does the fraction ligated read?
A: 0.823

Q: With T32A G38A as the variant, how does the fraction ligated read?
A: 0.861

Q: T32A G38C was tested. Which fraction ligated did it give?
A: 0.82

Q: With T32A G38T as the variant, how does the fraction ligated read?
A: 0.825

Q: For T32A G46A, which fraction ligated is on record?
A: 0.81

Q: How did the fraction ligated turn out when T32A G46C was run?
A: 0.778

Q: For T32A G46T, which fraction ligated is on record?
A: 0.787

Q: Which fraction ligated does the source give for T32A G47A here?
A: 0.597

Q: With T32A G47C as the variant, how does the fraction ligated read?
A: 0.102

Q: For T32A G47T, which fraction ligated is on record?
A: 0.104

Q: How did the fraction ligated turn out when T32A G50A was run?
A: 0.232

Q: T32A G50C was tested. Which fraction ligated did it give?
A: 0.0632

Q: Which fraction ligated does the source give for T32A G50T here?
A: 0.454

Q: Which fraction ligated does the source give for T32A G55A here?
A: 0.817

Q: Which fraction ligated does the source give for T32A G55C here?
A: 0.562

Q: With T32A G55T as the variant, how does the fraction ligated read?
A: 0.826

Q: How did the fraction ligated turn out when T32A T35A was run?
A: 0.855

Q: With T32A T35C as the variant, how does the fraction ligated read?
A: 0.829

Q: T32A T35G was tested. Which fraction ligated did it give?
A: 0.812

Q: How did the fraction ligated turn out when T32A T43A was run?
A: 0.831

Q: T32A T43C was tested. Which fraction ligated did it give?
A: 0.812

Q: With T32A T43G as the variant, how does the fraction ligated read?
A: 0.789

Q: How did the fraction ligated turn out when T32A T44A was run?
A: 0.819

Q: For T32A T44C, which fraction ligated is on record?
A: 0.82

Q: With T32A T44G as the variant, how does the fraction ligated read?
A: 0.814

Q: T32A T45A was tested. Which fraction ligated did it give?
A: 0.763
